B1: Phage-494 (peptide)
peptide: YCDGHSLEYIGKCL
notes: on phage, pIII fusion
B2: Phage-496 (peptide)
peptide: YCAGHLPEYMGKCL
notes: on phage, pIII fusion
B3: Phage-485 (peptide)
peptide: YCEGHMWEYMAKCL
notes: on phage, pIII fusion
B4: Phage-499 (peptide)
peptide: YCEGHVTEYMQKCL
notes: on phage, pIII fusion
B5: Phage-488 (peptide)
peptide: YCEGHDLIYMWKCL
notes: on phage, pIII fusion
B6: Phage-483 (peptide)
peptide: YCAGHVAEYMAKCL
notes: on phage, pIII fusion
B7: Phage-468 (peptide)
peptide: YCAGHLPEFMDKCL
notes: on phage, pIII fusion
B8: Phage-491 (peptide)
peptide: YCDGHLDVYRAKCL
notes: on phage, pIII fusion
B9: Phage-470 (peptide)
peptide: YCDGHDVEYMAKCL
notes: on phage, pIII fusion
B10: Phage-486 (peptide)
peptide: YCDGHDVEYMSKCL
notes: on phage, pIII fusion
B11: Phage-522 (peptide)
peptide: YCDGHRVEYMAKCL
notes: on phage, pIII fusion
B12: Phage-481 (peptide)
peptide: YCEGHSAQYMHKCL
notes: on phage, pIII fusion
B13: Phage-475 (peptide)
peptide: YCAGHAAEYMTKCL
notes: on phage, pIII fusion
B14: Phage-478 (peptide)
peptide: YCDGHSAEYLLKCL
notes: on phage, pIII fusion
B15: Phage-561 (peptide)
peptide: YCDGHSAEYLSKCL
notes: on phage, pIII fusion
B16: Phage-490 (peptide)
peptide: YCEGHSSEYMWKCL
notes: on phage, pIII fusion
B17: Phage-472 (peptide)
peptide: YCDGHSLLYLSKCL
notes: on phage, pIII fusion
B18: Phage-497 (peptide)
peptide: YCAGHLAIYMSKCL
notes: on phage, pIII fusion
B19: Phage-482 (peptide)
peptide: YCEGHTAEHMQKCL
notes: on phage, pIII fusion
B20: Phage-473 (peptide)
peptide: YCEGHLAVYMEKCL
notes: on phage, pIII fusion
B21: Phage-498 (peptide)
peptide: YCDGHLSEYMSKCL
notes: on phage, pIII fusion
B22: Phage-477 (peptide)
peptide: YCDGHAQEYRLKCL
notes: on phage, pIII fusion
B23: Phage-489 (peptide)
peptide: YCAGHAPEYMSKCL
notes: on phage, pIII fusion
B24: Phage-484 (peptide)
peptide: YCDGHATEYMQKCL
notes: on phage, pIII fusion
B25: Phage-479 (peptide)
peptide: YCDGHGPQYIQKCL
notes: on phage, pIII fusion
B26: Phage-566 (peptide)
peptide: YCDGHSPQYIQKCL
notes: on phage, pIII fusion
B27: Phage-487 (peptide)
peptide: YCAGHSLEYMQKCL
notes: on phage, pIII fusion
B28: Phage-493 (peptide)
peptide: YCEGHSWVYMAKCL
notes: on phage, pIII fusion
B29: Phage-492 (peptide)
peptide: YCEGHLEQYMQKCL
notes: on phage, pIII fusion
B30: Phage-480 (peptide)
peptide: YCEGHIAEYMQKCL
notes: on phage, pIII fusion
B31: Phage-495 (peptide)
peptide: YCDGHSEAFMQKCL
notes: on phage, pIII fusion
B32: Phage-474 (peptide)
peptide: YCEGHSLMYMWKCL
notes: on phage, pIII fusion
B33: Phage-563 (peptide)
peptide: YCEGHSLMYMAKCL
notes: on phage, pIII fusion

Target: T1, anti-CD28 Fab (SEQ ID NOs: 202, 203)
T1 construct: biotinylated and captured on neutravidin coated plates in the phage ELISA
Assay: phage ELISA on captured Fab;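 further: ELISA with clonal phage supernatants added to wells preincubated with CD28 antigen or with blocking buffer only, bound phage detected by HRP-conjugated anti-M13 antibody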
Protocol: (§1) Clonal phage were harvested as crude supernatants and screened via standard ELISAs. […] Prior to the addition of clonal phage, wells were incubated with blocking buffer and CD28 antigen or blocking buffer alone. Without washing or aspirating, clonal phage supernatants were then added to the wells and incubated for a short time. Wells were then washed followed by detection of bound phage using a horse radish conjugated anti-M13 antibody.

T1 sequence (VH, as listed by the source, chain 1 of 2): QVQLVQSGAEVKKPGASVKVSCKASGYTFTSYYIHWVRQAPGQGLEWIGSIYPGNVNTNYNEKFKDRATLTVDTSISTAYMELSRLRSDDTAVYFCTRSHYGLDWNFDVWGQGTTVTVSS
T1 sequence (VL, as listed by the source, chain 2 of 2): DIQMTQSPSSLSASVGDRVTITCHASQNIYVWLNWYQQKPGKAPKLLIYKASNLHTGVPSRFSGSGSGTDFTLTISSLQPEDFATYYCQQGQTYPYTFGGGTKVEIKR

Row | Binder | Anti-CD28 Fab (SEQ ID NOs: 202, 203) signal
1 | B1 | 1.63
2 | B2 | 1.63
3 | B3 | 1.64
4 | B4 | 1.62
5 | B5 | 1.63
6 | B6 | 1.64
7 | B7 | 1.66
8 | B8 | 1.63
9 | B9 | 1.66
10 | B10 | 1.64
11 | B11 | 1.58
12 | B12 | 1.64
13 | B13 | 1.65
14 | B14 | 1.65
15 | B15 | 1.51
16 | B16 | 1.63
17 | B17 | 1.65

Row | Binder | Anti-CD28 Fab (SEQ ID NOs: 202, 203) signal
18 | B18 | 1.63
19 | B19 | 1.64
20 | B20 | 1.65
21 | B21 | 1.62
22 | B22 | 1.65
23 | B23 | 1.63
24 | B24 | 1.64
25 | B25 | 1.64
26 | B26 | 1.5
27 | B27 | 1.63
28 | B28 | 1.63
29 | B29 | 1.63
30 | B30 | 1.64
31 | B31 | 1.63
32 | B32 | 1.65
33 | B33 | 1.5

Target: T1, anti-CD28 Fab (SEQ ID NOs: 202, 203)
Assay: phage ELISA on captured Fab, wells pre-incubated with CD28 antigen (competitor);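 further: clonal phage ELISA with wells pretreated with CD28 plus blocking buffer before phage addition, bound phage detected by HRP-linked anti-M13 antibody, reference wells got blocking buffer only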
Protocol: as §1

Row | Binder | Anti-CD28 Fab signal in the presence of CD28
34 | B1 | 0.06
35 | B2 | 0.07
36 | B3 | 0.13
37 | B4 | 0.08
38 | B5 | 0.06
39 | B6 | 0.06
40 | B7 | 0.06
41 | B8 | 0.09
42 | B9 | 0.07
43 | B10 | 0.05
44 | B11 | 0.09
45 | B12 | 0.06
46 | B13 | 0.07
47 | B14 | 0.07
48 | B15 | 0.07
49 | B16 | 0.09
50 | B17 | 0.07

Row | Binder | Anti-CD28 Fab signal in the presence of CD28
51 | B18 | 0.08
52 | B19 | 0.05
53 | B20 | 0.12
54 | B21 | 0.06
55 | B22 | 0.07
56 | B23 | 0.05
57 | B24 | 0.1
58 | B25 | 0.07
59 | B26 | 0.07
60 | B27 | 0.07
61 | B28 | 0.07
62 | B29 | 0.06
63 | B30 | 0.13
64 | B31 | 0.07
65 | B32 | 0.08
66 | B33 | 0.06

Source: patent US20260274955A1 (JANUX THERAPEUTICS, published 2026)
